According to publication PMC9482650, “Quantitative fragmentomics allow affinity mapping of interactomes” (Nature Communications, 2022):

T1: TJP3_3, O95049
T1 sequence (O95049 375-456, limits assumed, looked up): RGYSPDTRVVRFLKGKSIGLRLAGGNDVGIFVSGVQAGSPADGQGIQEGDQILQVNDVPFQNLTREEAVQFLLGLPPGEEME

T2: LNX2_3, Q8N448
T2 sequence (Q8N448 463-564, limits assumed, looked up): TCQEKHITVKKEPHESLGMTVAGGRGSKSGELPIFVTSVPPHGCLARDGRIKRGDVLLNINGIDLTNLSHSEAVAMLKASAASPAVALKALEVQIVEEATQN

T3: DFNB31_3, Q9P202
T3 sequence (Q9P202 811-907, limits assumed, looked up): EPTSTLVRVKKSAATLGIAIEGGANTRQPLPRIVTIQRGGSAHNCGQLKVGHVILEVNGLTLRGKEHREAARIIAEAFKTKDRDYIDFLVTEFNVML

T4: MPP7, Q5T2T1
T4 sequence (Q5T2T1 134-230, limits assumed, looked up): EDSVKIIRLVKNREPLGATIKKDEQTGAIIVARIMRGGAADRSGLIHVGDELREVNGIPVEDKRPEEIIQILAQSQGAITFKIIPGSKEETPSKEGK

T5: DFNB31_2, Q9P202
T5 sequence (Q9P202 274-371, limits assumed, looked up): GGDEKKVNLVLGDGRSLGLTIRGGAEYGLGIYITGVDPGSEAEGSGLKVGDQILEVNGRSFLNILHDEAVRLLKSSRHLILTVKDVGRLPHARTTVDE

T6: MPDZ_10, O75970
T6 sequence (O75970 1624-1722, limits assumed, looked up): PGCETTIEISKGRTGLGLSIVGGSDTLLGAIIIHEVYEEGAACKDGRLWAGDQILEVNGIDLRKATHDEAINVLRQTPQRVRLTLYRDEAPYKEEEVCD

T7: GRIP1_7, Q9Y3R0
T7 sequence (Q9Y3R0 999-1096, limits assumed, looked up): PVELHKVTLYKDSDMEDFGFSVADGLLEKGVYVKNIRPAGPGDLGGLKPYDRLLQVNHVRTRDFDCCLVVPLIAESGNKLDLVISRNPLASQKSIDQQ

T8: LIN7C, Q9NUP9
T8 sequence (Q9NUP9 88-185, limits assumed, looked up): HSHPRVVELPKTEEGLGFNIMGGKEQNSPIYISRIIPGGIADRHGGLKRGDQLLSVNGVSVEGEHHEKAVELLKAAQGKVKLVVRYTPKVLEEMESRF

T9: SNTB1, Q13884
T9 sequence (Q13884 107-205, limits assumed, looked up): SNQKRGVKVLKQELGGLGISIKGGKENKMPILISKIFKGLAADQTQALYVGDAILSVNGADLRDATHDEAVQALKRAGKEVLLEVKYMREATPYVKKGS


The binders below were run against TJP1_2, Q07157 (assay: holdup assay). Settings: plain residues with an end cap or a label only (N-terminal biotin on a linker: ttds).
Parameters: key: below the threshold = too weak to quantify, mostly under pKd 3.1 to 4

TJP1_2, Q07157, sequence (Q07157 181-274): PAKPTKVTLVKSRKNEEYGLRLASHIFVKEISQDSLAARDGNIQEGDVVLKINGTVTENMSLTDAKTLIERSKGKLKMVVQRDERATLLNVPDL

Row | pKd | Binder
1 | below the threshold | GRLLGLETNV [ARHGEF26, Q96DR7]
2 | below the threshold | QRPYRRESEI [KCNJ12, Q14500]

These binders were tested against T1, TJP3_3, O95049 (assay: holdup assay). Settings: plain residues with an end cap or a label only (N-terminal biotin on a linker: ttds).
Parameters: key: below the threshold = too weak to quantify, mostly under pKd 3.1 to 4

Row | pKd | Binder
3 | below the threshold | GRLLGLETNV [ARHGEF26, Q96DR7]
4 | below the threshold | QRPYRRESEI [KCNJ12, Q14500]

What follows are binders tested against T2, LNX2_3, Q8N448 (assay: holdup assay). Settings: plain residues with an end cap or a label only (N-terminal biotin on a linker: ttds).
Parameters: key: below the threshold = too weak to quantify, mostly under pKd 3.1 to 4

Row | pKd | Binder
5 | below the threshold | GRLLGLETNV [ARHGEF26, Q96DR7]
6 | below the threshold | QRPYRRESEI [KCNJ12, Q14500]

The binders below were run against GRIP2_5, Q9C0E4 (assay: holdup assay). Settings: plain residues with an end cap or a label only (N-terminal biotin on a linker: ttds).
Parameters: key: below the threshold = too weak to quantify, mostly under pKd 3.1 to 4

GRIP2_5, Q9C0E4, sequence (Q9C0E4 544-642): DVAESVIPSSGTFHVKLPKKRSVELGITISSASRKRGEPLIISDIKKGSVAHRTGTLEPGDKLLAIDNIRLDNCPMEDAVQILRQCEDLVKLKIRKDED

Row | pKd | Binder
7 | below the threshold | GRLLGLETNV [ARHGEF26, Q96DR7]
8 | below the threshold | QRPYRRESEI [KCNJ12, Q14500]

The binders below were run against PICK1, Q9NRD5 (assay: holdup assay). Settings: plain residues with an end cap or a label only (N-terminal biotin on a linker: ttds).
Parameters: key: below the threshold = too weak to quantify, mostly under pKd 3.1 to 4

PICK1, Q9NRD5, sequence (Q9NRD5 17-115): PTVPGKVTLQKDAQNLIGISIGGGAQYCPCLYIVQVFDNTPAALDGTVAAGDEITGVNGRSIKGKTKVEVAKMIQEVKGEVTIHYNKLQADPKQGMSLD

Row | pKd | Binder
9 | below the threshold | GRLLGLETNV [ARHGEF26, Q96DR7]
10 | below the threshold | QRPYRRESEI [KCNJ12, Q14500]

The binders below were run against T3, DFNB31_3, Q9P202 (assay: holdup assay). Settings: plain residues with an end cap or a label only (N-terminal biotin on a linker: ttds).
Parameters: key: below the threshold = too weak to quantify, mostly under pKd 3.1 to 4

Row | pKd | Binder
11 | below the threshold | GRLLGLETNV [ARHGEF26, Q96DR7]
12 | below the threshold | QRPYRRESEI [KCNJ12, Q14500]

What follows are binders tested against DLG5_1, Q8TDM6 (assay: holdup assay). Settings: plain residues with an end cap or a label only (N-terminal biotin on a linker: ttds).
Parameters: key: below the threshold = too weak to quantify, mostly under pKd 3.1 to 4

DLG5_1, Q8TDM6, sequence (Q8TDM6 617-713): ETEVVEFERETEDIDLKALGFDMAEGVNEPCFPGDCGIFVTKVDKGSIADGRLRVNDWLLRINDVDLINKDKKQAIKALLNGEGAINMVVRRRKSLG

Row | pKd | Binder
13 | below the threshold | GRLLGLETNV [ARHGEF26, Q96DR7]
14 | below the threshold | QRPYRRESEI [KCNJ12, Q14500]

Each binder was assayed against NHERF4_1, Q86UT5-2 (assay: holdup assay). Settings: plain residues with an end cap or a label only (N-terminal biotin on a linker: ttds).
Parameters: key: below the threshold = too weak to quantify, mostly under pKd 3.1 to 4

NHERF4_1, Q86UT5-2, sequence (Q86UT5 other isoform, or with tags, fused parts or gaps): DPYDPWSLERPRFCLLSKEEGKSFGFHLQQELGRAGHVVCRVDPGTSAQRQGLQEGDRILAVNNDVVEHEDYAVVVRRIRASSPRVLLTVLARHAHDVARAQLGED

Row | pKd | Binder
15 | below the threshold | GRLLGLETNV [ARHGEF26, Q96DR7]
16 | below the threshold | QRPYRRESEI [KCNJ12, Q14500]

Each binder was assayed against T4, MPP7, Q5T2T1 (assay: holdup assay). Settings: plain residues with an end cap or a label only (N-terminal biotin on a linker: ttds).
Parameters: key: below the threshold = too weak to quantify, mostly under pKd 3.1 to 4

Row | pKd | Binder
17 | below the threshold | GRLLGLETNV [ARHGEF26, Q96DR7]
18 | below the threshold | QRPYRRESEI [KCNJ12, Q14500]

What follows are binders tested against Inadl_10, Q8NI35 (assay: holdup assay). Settings: plain residues with an end cap or a label only (N-terminal biotin on a linker: ttds).
Parameters: key: below the threshold = too weak to quantify, mostly under pKd 3.1 to 4

Inadl_10, Q8NI35, sequence (Q8NI35 1673-1763): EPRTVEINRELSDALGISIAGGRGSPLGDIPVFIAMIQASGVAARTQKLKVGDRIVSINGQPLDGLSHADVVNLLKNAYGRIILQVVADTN

Row | pKd | Binder
19 | below the threshold | GRLLGLETNV [ARHGEF26, Q96DR7]
20 | below the threshold | QRPYRRESEI [KCNJ12, Q14500]

Each binder was assayed against T5, DFNB31_2, Q9P202 (assay: holdup assay). Settings: plain residues with an end cap or a label only (N-terminal biotin on a linker: ttds).
Parameters: key: below the threshold = too weak to quantify, mostly under pKd 3.1 to 4

Row | pKd | Binder
21 | below the threshold | GRLLGLETNV [ARHGEF26, Q96DR7]
22 | below the threshold | QRPYRRESEI [KCNJ12, Q14500]

Each binder was assayed against GRID2IP_1, A4D2P6 (assay: holdup assay). Settings: plain residues with an end cap or a label only (N-terminal biotin on a linker: ttds).
Parameters: key: below the threshold = too weak to quantify, mostly under pKd 3.1 to 4

GRID2IP_1, A4D2P6, sequence (A4D2P6 1-87): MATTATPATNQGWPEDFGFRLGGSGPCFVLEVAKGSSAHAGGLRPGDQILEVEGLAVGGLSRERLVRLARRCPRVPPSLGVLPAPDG

Row | pKd | Binder
23 | below the threshold | GRLLGLETNV [ARHGEF26, Q96DR7]
24 | below the threshold | QRPYRRESEI [KCNJ12, Q14500]

The binders below were run against T6, MPDZ_10, O75970 (assay: holdup assay). Settings: plain residues with an end cap or a label only (N-terminal biotin on a linker: ttds).
Parameters: key: below the threshold = too weak to quantify, mostly under pKd 3.1 to 4

Row | pKd | Binder
25 | below the threshold | GRLLGLETNV [ARHGEF26, Q96DR7]
26 | below the threshold | QRPYRRESEI [KCNJ12, Q14500]

The binders below were run against CASK, O14936 (assay: holdup assay). Settings: plain residues with an end cap or a label only (N-terminal biotin on a linker: ttds).
Parameters: key: below the threshold = too weak to quantify, mostly under pKd 3.1 to 4

CASK, O14936, sequence (O14936 487-570): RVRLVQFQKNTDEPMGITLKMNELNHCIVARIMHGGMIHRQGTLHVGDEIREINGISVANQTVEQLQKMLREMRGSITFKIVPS

Row | pKd | Binder
27 | below the threshold | GRLLGLETNV [ARHGEF26, Q96DR7]
28 | below the threshold | QRPYRRESEI [KCNJ12, Q14500]

What follows are binders tested against GRID2IP_2, A4D2P6 (assay: holdup assay). Settings: plain residues with an end cap or a label only (N-terminal biotin on a linker: ttds).
Parameters: key: below the threshold = too weak to quantify, mostly under pKd 3.1 to 4

GRID2IP_2, A4D2P6, sequence (A4D2P6 272-370): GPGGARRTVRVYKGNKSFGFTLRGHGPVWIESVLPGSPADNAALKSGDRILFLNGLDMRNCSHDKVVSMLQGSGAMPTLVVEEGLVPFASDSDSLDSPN

Row | pKd | Binder
29 | below the threshold | GRLLGLETNV [ARHGEF26, Q96DR7]
30 | below the threshold | QRPYRRESEI [KCNJ12, Q14500]

The binders below were run against Inadl_6, Q8NI35 (assay: holdup assay). Settings: plain residues with an end cap or a label only (N-terminal biotin on a linker: ttds).
Parameters: key: below the threshold = too weak to quantify, mostly under pKd 3.1 to 4

Inadl_6, Q8NI35, sequence (Q8NI35 1058-1167): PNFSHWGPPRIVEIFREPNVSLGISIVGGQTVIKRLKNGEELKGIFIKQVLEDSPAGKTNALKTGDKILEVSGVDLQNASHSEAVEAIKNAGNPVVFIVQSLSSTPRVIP

Row | pKd | Binder
31 | below the threshold | GRLLGLETNV [ARHGEF26, Q96DR7]
32 | below the threshold | QRPYRRESEI [KCNJ12, Q14500]

These binders were tested against SCRIB_2, Q14160 (assay: holdup assay). Settings: plain residues with an end cap or a label only (N-terminal biotin on a linker: ttds).
Parameters: key: below the threshold = too weak to quantify, mostly under pKd 3.1 to 4

SCRIB_2, Q14160, sequence (Q14160 857-960): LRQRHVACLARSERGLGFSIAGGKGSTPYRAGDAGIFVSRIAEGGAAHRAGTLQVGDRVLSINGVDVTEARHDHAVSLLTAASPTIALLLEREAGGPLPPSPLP

Row | pKd | Binder
33 | 4.29 | GRLLGLETNV [ARHGEF26, Q96DR7]
34 | 3.56 | QRPYRRESEI [KCNJ12, Q14500]

These binders were tested against TJP1_3, Q07157 (assay: holdup assay). Settings: plain residues with an end cap or a label only (N-terminal biotin on a linker: ttds).
Parameters: key: below the threshold = too weak to quantify, mostly under pKd 3.1 to 4

TJP1_3, Q07157, sequence (Q07157 416-512): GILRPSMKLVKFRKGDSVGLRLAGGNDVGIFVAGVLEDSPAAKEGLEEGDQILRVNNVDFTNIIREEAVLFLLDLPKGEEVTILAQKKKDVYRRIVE

Row | pKd | Binder
35 | below the threshold | GRLLGLETNV [ARHGEF26, Q96DR7]
36 | below the threshold | QRPYRRESEI [KCNJ12, Q14500]

These binders were tested against Inadl_1, Q8NI35 (assay: holdup assay). Settings: plain residues with an end cap or a label only (N-terminal biotin on a linker: ttds).
Parameters: key: below the threshold = too weak to quantify, mostly under pKd 3.1 to 4

Inadl_1, Q8NI35, sequence (Q8NI35 113-229): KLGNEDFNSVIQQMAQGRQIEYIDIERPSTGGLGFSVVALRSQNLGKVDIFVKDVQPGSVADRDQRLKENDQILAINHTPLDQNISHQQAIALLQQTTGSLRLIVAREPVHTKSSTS

Row | pKd | Binder
37 | below the threshold | GRLLGLETNV [ARHGEF26, Q96DR7]
38 | below the threshold | QRPYRRESEI [KCNJ12, Q14500]

Each binder was assayed against GORASP1, Q9BQQ3 (assay: holdup assay). Settings: plain residues with an end cap or a label only (N-terminal biotin on a linker: ttds).
Parameters: key: below the threshold = too weak to quantify, mostly under pKd 3.1 to 4

GORASP1, Q9BQQ3, sequence (Q9BQQ3 1-208): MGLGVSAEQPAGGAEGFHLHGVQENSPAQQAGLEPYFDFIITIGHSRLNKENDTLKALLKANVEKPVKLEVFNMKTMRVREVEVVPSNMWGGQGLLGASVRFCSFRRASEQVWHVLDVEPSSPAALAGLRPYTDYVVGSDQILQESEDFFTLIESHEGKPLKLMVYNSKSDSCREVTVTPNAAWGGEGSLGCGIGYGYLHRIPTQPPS

Row | pKd | Binder
39 | below the threshold | GRLLGLETNV [ARHGEF26, Q96DR7]
40 | below the threshold | QRPYRRESEI [KCNJ12, Q14500]

These binders were tested against LNX1_1, Q8TBB1 (assay: holdup assay). Settings: plain residues with an end cap or a label only (N-terminal biotin on a linker: ttds).
Parameters: key: below the threshold = too weak to quantify, mostly under pKd 3.1 to 4

LNX1_1, Q8TBB1, sequence (Q8TBB1 261-371): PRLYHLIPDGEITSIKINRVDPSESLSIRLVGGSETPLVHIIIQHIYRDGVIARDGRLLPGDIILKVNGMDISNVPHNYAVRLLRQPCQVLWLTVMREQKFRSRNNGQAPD

Row | pKd | Binder
41 | 3.81 | GRLLGLETNV [ARHGEF26, Q96DR7]
42 | below the threshold | QRPYRRESEI [KCNJ12, Q14500]

These binders were tested against T7, GRIP1_7, Q9Y3R0 (assay: holdup assay). Settings: plain residues with an end cap or a label only (N-terminal biotin on a linker: ttds).
Parameters: key: below the threshold = too weak to quantify, mostly under pKd 3.1 to 4

Row | pKd | Binder
43 | 4.11 | GRLLGLETNV [ARHGEF26, Q96DR7]
44 | below the threshold | QRPYRRESEI [KCNJ12, Q14500]

The binders below were run against T8, LIN7C, Q9NUP9 (assay: holdup assay). Settings: plain residues with an end cap or a label only (N-terminal biotin on a linker: ttds).
Parameters: key: below the threshold = too weak to quantify, mostly under pKd 3.1 to 4

Row | pKd | Binder
45 | 3.72 | GRLLGLETNV [ARHGEF26, Q96DR7]
46 | below the threshold | QRPYRRESEI [KCNJ12, Q14500]

What follows are binders tested against Inadl_2, Q8NI35 (assay: holdup assay). Settings: plain residues with an end cap or a label only (N-terminal biotin on a linker: ttds).
Parameters: key: below the threshold = too weak to quantify, mostly under pKd 3.1 to 4

Inadl_2, Q8NI35, sequence (Q8NI35 238-335): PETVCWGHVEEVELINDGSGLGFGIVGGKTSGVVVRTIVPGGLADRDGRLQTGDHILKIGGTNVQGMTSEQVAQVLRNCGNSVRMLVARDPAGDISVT

Row | pKd | Binder
47 | below the threshold | GRLLGLETNV [ARHGEF26, Q96DR7]
48 | below the threshold | QRPYRRESEI [KCNJ12, Q14500]

What follows are binders tested against MAGI3_2, Q5TCQ9 (assay: holdup assay). Settings: plain residues with an end cap or a label only (N-terminal biotin on a linker: ttds).
Parameters: key: below the threshold = too weak to quantify, mostly under pKd 3.1 to 4

MAGI3_2, Q5TCQ9, sequence (Q5TCQ9 398-503): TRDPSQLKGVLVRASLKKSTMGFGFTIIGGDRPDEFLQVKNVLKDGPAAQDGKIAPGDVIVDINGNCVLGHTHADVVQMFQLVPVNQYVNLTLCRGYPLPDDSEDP

Row | pKd | Binder
49 | 4.68 | GRLLGLETNV [ARHGEF26, Q96DR7]
50 | 4.75 | QRPYRRESEI [KCNJ12, Q14500]

These binders were tested against T9, SNTB1, Q13884 (assay: holdup assay). Settings: plain residues with an end cap or a label only (N-terminal biotin on a linker: ttds).
Parameters: key: below the threshold = too weak to quantify, mostly under pKd 3.1 to 4

Row | pKd | Binder
51 | 4.79 | GRLLGLETNV [ARHGEF26, Q96DR7]
52 | 3.86 | QRPYRRESEI [KCNJ12, Q14500]

These binders were tested against HTRA2, O43464 (assay: holdup assay). Settings: plain residues with an end cap or a label only (N-terminal biotin on a linker: ttds).
Parameters: key: below the threshold = too weak to quantify, mostly under pKd 3.1 to 4

HTRA2, O43464, sequence (O43464 355-458): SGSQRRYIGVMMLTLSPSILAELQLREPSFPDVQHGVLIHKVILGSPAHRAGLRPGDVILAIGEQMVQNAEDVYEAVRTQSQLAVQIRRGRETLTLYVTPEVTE

Row | pKd | Binder
53 | below the threshold | GRLLGLETNV [ARHGEF26, Q96DR7]
54 | below the threshold | QRPYRRESEI [KCNJ12, Q14500]

Each binder was assayed against GRIP2_7, Q9C0E4 (assay: holdup assay). Settings: plain residues with an end cap or a label only (N-terminal biotin on a linker: ttds).
Parameters: key: below the threshold = too weak to quantify, mostly under pKd 3.1 to 4

GRIP2_7, Q9C0E4, sequence (Q9C0E4 934-1023): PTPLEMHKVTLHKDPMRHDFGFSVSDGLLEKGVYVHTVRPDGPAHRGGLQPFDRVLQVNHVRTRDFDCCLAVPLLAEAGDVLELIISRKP

Row | pKd | Binder
55 | below the threshold | GRLLGLETNV [ARHGEF26, Q96DR7]
56 | below the threshold | QRPYRRESEI [KCNJ12, Q14500]
